Measured values reported in patent US20230265404, “ENGINEERED MAD7 DIRECTED ENDONUCLEASE” (BIO-TECHNE CORPORATION, published 2023).

Molecular target: T1, MAD7 E962Q (dead MAD7) (Eubacterium rectale, E962Q)
T1 chain: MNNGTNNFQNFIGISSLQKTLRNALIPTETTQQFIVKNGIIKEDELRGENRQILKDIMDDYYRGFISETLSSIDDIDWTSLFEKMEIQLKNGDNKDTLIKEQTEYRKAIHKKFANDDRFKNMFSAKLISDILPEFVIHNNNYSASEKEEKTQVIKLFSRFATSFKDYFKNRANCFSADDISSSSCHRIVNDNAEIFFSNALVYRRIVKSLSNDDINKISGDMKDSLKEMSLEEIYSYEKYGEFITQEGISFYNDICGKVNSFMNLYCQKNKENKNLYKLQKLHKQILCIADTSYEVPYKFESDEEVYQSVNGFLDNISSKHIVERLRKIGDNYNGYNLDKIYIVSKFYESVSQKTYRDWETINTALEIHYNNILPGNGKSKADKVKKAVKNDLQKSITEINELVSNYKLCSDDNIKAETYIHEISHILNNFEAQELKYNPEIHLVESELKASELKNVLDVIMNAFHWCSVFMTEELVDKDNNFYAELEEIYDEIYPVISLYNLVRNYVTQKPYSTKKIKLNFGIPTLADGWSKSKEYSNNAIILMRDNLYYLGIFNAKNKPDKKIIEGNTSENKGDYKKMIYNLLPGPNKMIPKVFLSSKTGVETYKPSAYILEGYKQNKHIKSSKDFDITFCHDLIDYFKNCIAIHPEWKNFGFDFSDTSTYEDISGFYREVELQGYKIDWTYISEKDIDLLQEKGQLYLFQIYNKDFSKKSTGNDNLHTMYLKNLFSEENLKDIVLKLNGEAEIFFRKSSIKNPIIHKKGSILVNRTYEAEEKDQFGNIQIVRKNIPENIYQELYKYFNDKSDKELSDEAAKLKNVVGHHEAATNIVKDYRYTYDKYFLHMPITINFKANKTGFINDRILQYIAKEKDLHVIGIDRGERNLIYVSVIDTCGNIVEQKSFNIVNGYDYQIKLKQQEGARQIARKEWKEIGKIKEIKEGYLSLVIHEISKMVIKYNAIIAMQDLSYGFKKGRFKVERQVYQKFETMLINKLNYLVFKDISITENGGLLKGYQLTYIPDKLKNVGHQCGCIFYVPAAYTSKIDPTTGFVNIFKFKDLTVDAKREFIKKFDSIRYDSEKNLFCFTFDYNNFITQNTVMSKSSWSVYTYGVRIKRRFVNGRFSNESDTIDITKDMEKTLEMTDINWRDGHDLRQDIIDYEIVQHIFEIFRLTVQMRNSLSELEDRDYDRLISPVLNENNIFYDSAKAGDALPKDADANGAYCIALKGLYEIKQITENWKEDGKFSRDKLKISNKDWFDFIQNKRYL
Assay: EMSA; bound without cutting; PAM TTTA (5', from target sequence); NEB3.1, salmon sperm DNA competitor, 37 C
Settings: tags: C-terminal 6xHis
Method: To evaluate catalytic activity the modified MAD7 enzyme, an electrophoretic mobility shift assay (EMSA) was performed. The following reagents were used: [0142] […] salmon sperm DNA (United States Biological D3950-02 DNA, Salmon [0143] (Deoxyribonucleic acid) CAS: 9007-49-2 [0144] 100 pmol MAD7 variant [0145] 5 pmol double stranded, 6FAM labeled target (created as described above) [0146] 50 pmol MAD7 PPIB gRNA [0147] 2 μL NEB3.1 10X (New England Biolabs) [0148] 20 μL total reaction
The MAD7 variant was incubated with MAD7 PPIB gRNA at 37° C. for 15 minutes. Other reagents were added and incubated 37° for 30 minutes. Reactions were analyzed by gel electrophoresis. Samples were run on a 5% Mini-PROTEAN TBE Mini-Gels (Bio-Rad). Gels were pre-run for 15 minutes at 100V in 0.5X TBE running buffer, samples were loaded and run at 200V for 15 minutes. Gels were imaged with ProteinSimple FluorChem M system using blue excitation and green emission filter to detect 6FAM label. Gel was then stained for 15 minutes in ethidium bromide solution and imaged again using blue excitation and orange emission filter to detect DNA, finally the gel was stained with Coomassie stain and imaged with white light. […]

B1: MAD7 PPIB gRNA ; 6FAM PPIB target duplex (ssRNA ; dsDNA)
RNA: UAAUUUCUACUCUUGUAGAUCCGUCACCAAAAUCAGAUUCA
DNA 1: AGATTCTCATAGGATTTTTACCGTCACCAAAATCAGATTCAGAACCACTTCTCTAAA
DNA 2: TTTAGAGAAGTGGTTCTGAATCTGATTTTGGTGACGGTAAAAATCCTATGAGAATCT
binding result: binds
